Laboratory results as given in patent US20260242483A1 (IMCHECK THERAPEUTICS, published 2026).
Changes are numbered by the printed parent chain. Names and notes keep the numbering of the source. One block for each binder: values may come before it.

Key:
[1] = biological target: T1, recombinant human BTN3A1-His (Sino Biological Cat. No. 15973-H08H) (human, UniProt O00481 30-254); assay: SPR Biacore single cycle kinetics; BTN3A1-His captured via anti-His, F(ab′)2 analyte, bivalent analyte fit
T1 construct: Bought protein; also called BTN3A1 His-tagged antigen; CD277; not shown: C-terminal His tag
Method: (§1) All single cycle kinetic experiments were run at 25° C. with HBS-P+ running buffer (pH 7.4) containing 0.1% BSA (GE Healthcare, Little Chalfont, UK).
(§2) BTN3A1 His-tagged antigen (Sino Biological, Beijing, China) was diluted in running buffer to a final concentration of 0.4 μg/ml. At the start of each cycle, BTN3A1-His was captured onto Fc2 of CM5 sensor chip pre-coupled using a His capture kit (GE Healthcare, Little Chalfont, UK) with standard amine chemistry at a flow rate of 10 μl/min. An immobilization level (RL) of ~34 RU, 16 RU or 11 RU, the different theoretical values to obtain a RMax of ~50 RU was used for the analytes Fab, F(ab′) 2 and IgG respectively. The surface was then allowed to stabilize. Single cycle kinetic data was obtained with the purified samples (Fab, F(ab′)₂ and IgG) at a flow rate of 40 μl/min to minimize any potential mass transfer effects. The signal from the reference channel Fc1 (no antigen capture) was subtracted from that of Fc2 to correct for differences in non-specific binding to the reference surface. […] The association phase for the five injections of increasing concentrations was monitored for 240 seconds each time and a single dissociation phase was measured for 1400 seconds following the last injection of analyte. […] The kinetic constants were calculated for each variant (see Tables 10, 11 and 12).

[2] = biological target: T1, recombinant human BTN3A1-His (Sino …); assay: SPR Biacore multi-cycle kinetics; antibody captured on Protein A, BTN3A1-His analyte, 1:1 fit
[3] = biological target: T2, BTN3A1-CFP on HEK293T BTN3KO cells (human, UniProt O00481 30-513); assay: flow cytometry on HEK293T BTN3KO transiently transfected with BTN3A1-CFP, gated CFP+ (n = 4)
T2 construct: Transient transfection of BTN3A knock-out HEK293T; also called HEK293T BTN3KO + 3A1-CFP; not shown: CFP fusion partner

[4] = biological target: T3, BTN3A2-CFP on HEK293T BTN3KO cells (human, UniProt P78410 30-334); assay: flow cytometry on HEK293T BTN3KO transiently transfected with BTN3A2-CFP, gated CFP+ (n = 5)
T3 construct: Transient transfection of BTN3A knock-out HEK293T; also called HEK293T BTN3KO + 3A2-CFP; not shown: CFP fusion partner

[5] = biological target: T4, BTN3A3-CFP on HEK293T BTN3KO cells (human, UniProt O00478 30-584); assay: flow cytometry on HEK293T BTN3KO transiently transfected with BTN3A3-CFP, gated CFP+ (n = 5)
T4 construct: Transient transfection of BTN3A knock-out HEK293T; also called HEK293T BTN3KO + 3A3-CFP; not shown: CFP fusion partner

[6] = biological target: T1, recombinant human BTN3A1-His (Sino …); assay: SPR Biacore single cycle kinetics; BTN3A1-His captured via anti-His, IgG analyte, bivalent analyte fit
Method: as §1
BTN3A1 His-tagged antigen (Sino Biological, Beijing, China) was diluted in running buffer to a final concentration of 0.4 μg/ml. At the start of each cycle, BTN3A1-His was captured onto Fc2 of CM5 sensor chip pre-coupled using a His capture kit (GE Healthcare, Little Chalfont, UK) with standard amine chemistry at a flow rate of 10 μl/min. An immobilization level (RL) of ~34 RU, 16 RU or 11 RU, the different theoretical values to obtain a RMax of ~50 RU was used for the analytes Fab, F(ab′) 2 and IgG respectively. The surface was then allowed to stabilize. Single cycle kinetic data was obtained with the purified samples (Fab, F(ab′)₂ and IgG) at a flow rate of 40 μl/min to minimize any potential mass transfer effects. The signal from the reference channel Fc1 (no antigen capture) was subtracted from that of Fc2 to correct for differences in non-specific binding to the reference surface. The signal for BTN3A1-His blank runs (no analyte) were subtracted to correct for differences in surface stability. The association phase for the five injections of increasing concentrations was monitored for 240 seconds each time and a single dissociation phase was measured for 1400 seconds following the last injection of analyte. Regeneration of the chip surface was conducted using two injections of 10 mM glycine-HCL pH 1.5 followed by a stabilization period of 240 seconds. Raw sensorgrams were fitted with a 1:1 model for Fab samples and with a bivalent analyte model for F(ab′)₂ and IgG samples in agreement with the different valences of the analytes. The kinetic constants were calculated for each variant (see Tables 10, 11 and 12).

[7] = biological target: T1, recombinant human BTN3A1-His (Sino …); assay: SPR Biacore single cycle kinetics; BTN3A1-His captured via anti-His, IgG analyte, bivalent analyte fit (Ka1)
Method: as §1, §2

[8] = biological target: T1, recombinant human BTN3A1-His (Sino …); assay: SPR Biacore single cycle kinetics; BTN3A1-His captured via anti-His, IgG analyte, bivalent analyte fit (Kd 1)
Method: as §1, §2

T1 sequence (O00481 30-254 limits assumed): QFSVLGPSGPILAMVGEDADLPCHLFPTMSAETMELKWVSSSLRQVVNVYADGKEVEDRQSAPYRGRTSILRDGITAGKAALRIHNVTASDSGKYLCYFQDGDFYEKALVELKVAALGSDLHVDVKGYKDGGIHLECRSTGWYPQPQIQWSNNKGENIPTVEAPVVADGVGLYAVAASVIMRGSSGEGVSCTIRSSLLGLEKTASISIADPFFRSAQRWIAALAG
T4 sequence (O00478 30-584): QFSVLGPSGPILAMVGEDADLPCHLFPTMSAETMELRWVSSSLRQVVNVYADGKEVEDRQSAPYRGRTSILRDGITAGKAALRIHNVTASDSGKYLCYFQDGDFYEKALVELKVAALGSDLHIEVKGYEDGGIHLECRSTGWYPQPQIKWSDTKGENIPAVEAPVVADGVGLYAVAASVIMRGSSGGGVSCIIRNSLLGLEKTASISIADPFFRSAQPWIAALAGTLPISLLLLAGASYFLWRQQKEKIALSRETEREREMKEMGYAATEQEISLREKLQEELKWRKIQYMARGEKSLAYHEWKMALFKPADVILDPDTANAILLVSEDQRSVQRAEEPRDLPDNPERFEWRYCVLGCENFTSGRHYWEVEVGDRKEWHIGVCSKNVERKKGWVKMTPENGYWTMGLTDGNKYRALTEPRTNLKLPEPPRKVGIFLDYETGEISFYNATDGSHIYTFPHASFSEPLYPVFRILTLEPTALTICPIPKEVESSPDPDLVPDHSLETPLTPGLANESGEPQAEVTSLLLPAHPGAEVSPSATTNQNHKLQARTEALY
T3 sequence (P78410 30-334): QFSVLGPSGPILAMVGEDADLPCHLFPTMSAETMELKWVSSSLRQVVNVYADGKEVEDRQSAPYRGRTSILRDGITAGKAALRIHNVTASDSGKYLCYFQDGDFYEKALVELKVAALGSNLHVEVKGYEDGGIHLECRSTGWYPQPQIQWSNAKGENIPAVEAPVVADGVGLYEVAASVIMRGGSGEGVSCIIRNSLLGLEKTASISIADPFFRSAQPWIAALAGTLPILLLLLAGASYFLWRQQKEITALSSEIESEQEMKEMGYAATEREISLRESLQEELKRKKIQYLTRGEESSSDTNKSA
T2 sequence (O00481 30-513): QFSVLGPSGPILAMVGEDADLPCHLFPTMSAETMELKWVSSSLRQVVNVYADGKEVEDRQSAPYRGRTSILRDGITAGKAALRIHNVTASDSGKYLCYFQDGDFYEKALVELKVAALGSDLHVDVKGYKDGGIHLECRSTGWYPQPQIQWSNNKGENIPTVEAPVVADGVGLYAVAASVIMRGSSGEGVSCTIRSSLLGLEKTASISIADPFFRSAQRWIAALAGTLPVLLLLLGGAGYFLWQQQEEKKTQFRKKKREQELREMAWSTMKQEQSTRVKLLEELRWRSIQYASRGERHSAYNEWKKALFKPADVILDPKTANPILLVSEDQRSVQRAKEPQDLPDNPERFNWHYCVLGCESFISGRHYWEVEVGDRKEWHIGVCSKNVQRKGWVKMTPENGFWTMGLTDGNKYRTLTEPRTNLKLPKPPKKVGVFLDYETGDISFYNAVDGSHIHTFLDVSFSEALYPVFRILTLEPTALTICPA

Kd 2 [1]: 32.4 s⁻¹
B1: 7.2 VH2/VK1 F(ab′)2 (other)
heavy: QVQLVQSGAEVKKPGASVKLSCKASGYIFTRYYMYWVKQRPGQGLEWIGEINPNNGGTKFNEKFKNRATLTVDKSISTAYMELSRLRSDDTAVYYCSREDDYDGTPFAMDYWGQGTLVTVSS
light: not shown
notes: not shown: IgG4 CH1 and hinge up to the pepsin cleavage site

Kd 2 [1]: 54.6 s⁻¹
B2: 7.2 VH2/VK2 F(ab′)2 (other)
heavy: B1 heavy
light: not shown
notes: as for B1

Kd [2]: 176 pM
B3: Chimeric 7.2 (VH0/Vκ0) (antibody, V domains shown)
VH: QVQLQQSGAELVKPGASVKLSCKASGYIFTRYYMYWVKQRPGQGLEWIGEINPNNGGTKFNEKFKNKATLTVDKFSSTAYMQLRSLTSEDSAVYYCSREDDYDGTPFAMDYWGQGTSVTVSS
VL: DIQMNQSPSSLSASLGDTITITCHASQNINVWLSWYQQKPGNIPKLLIYKASNLHTGVPSRFTGSGSGTGFTLTISSLQPEDIATYYCQQGQTYPYTFGGGTKLEIK
notes: not used; also called 7.2 VH0/Vk0; chimeric 7.2 antibody

EC50 [3]: 2.4 µg/mL | EC50 [4]: 1.88 µg/mL | EC50 [5]: 1.75 µg/mL | Kd 2 [6]: 44 s⁻¹
B4: mAb1 (antibody, human IgG1, kappa)
heavy: QVQLVQSGAEVKKPGASVKLSCKASGYIFTRYYMYWVKQRPGQGLEWIGEINPNNGGTKFNEKFKNRATLTVDKSISTAYMELSRLRSDDTAVYYCSREDDYDGTPFAMDYWGQGTLVTVSSASTKGPSVFPLAPSSKSTSGGTAALGCLVKDYFPEPVTVSWNSGALTSGVHTFPAVLQSSGLYSLSSVVTVPSSSLGTQTYICNVNHKPSNTKVDKRVEPKSCDKTHTCPPCPAPEFEGGPSVFLFPPKPKDTLMISRTPEVTCVVVDVSHEDPEVKFNWYVDGVEVHNAKTKPREEQYNSTYRVVSVLTVLHQDWLNGKEYKCKVSNKALPASIEKTISKAKGQPREPQVYTLPPSREEMTKNQVSLTCLVKGFYPSDIAVEWESNGQPENNYKTTPPVLDSDGSFFLYSKLTVDKSRWQQGNVFSCSVMHEALHNHYTQKSLSLSPG
light: not shown
notes: Humanized 7.2 (VH2/Vk1), silent IgG1 L247F/L248E/P350S, kappa; also called 7.2 VH2/VK1 IgG1; IgG1 7.2 VH2/VK1

Kd 2 [6]: 0.0241 s⁻¹
B5: mAb2 (antibody, human IgG1, kappa)
heavy: B4 heavy
light: not shown
notes: Humanized 7.2 (VH2/Vk2), silent IgG1 L247F/L248E/P350S, kappa; also called 7.2 VH2/VK2 IgG1; IgG1 7.2 VH2/VK2

Kd 2 [6]: 8.6e-05 s⁻¹ | kon [7]: 56300 M⁻¹ s⁻¹ | koff [8]: 0.00379 s⁻¹
B6: mAb3 (antibody, V domains shown)
VH: QVQLVQSGAEVKKPGASVKVSCKASGYTFNGYYIHWVRQAPGQGLEWMGWINSNSGGTKYAQKFQGRVTMTRDTSISTAYMELSRLRSDDTAVYYCARRHSDMIGYYYGMDVWGQGTTVTVSS
VL: DIQMTQSPSSVSASVGDRVTITCRASQGISSWLAWYQQKPGKAPKLLIYAASSLQSGVPSRFSGSGSGTDFTLTISSLQPEDFATYYCQQATDFPPTFGGGTKVEIKR

Kd [2]: 319 pM
B7: mAb6 (antibody, V domains shown)
VH: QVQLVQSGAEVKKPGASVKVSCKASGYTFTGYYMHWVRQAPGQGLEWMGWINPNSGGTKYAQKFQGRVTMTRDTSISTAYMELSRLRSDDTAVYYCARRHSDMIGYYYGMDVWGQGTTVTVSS
VL: B6 VL with V11L, G28S, S31L, W32F, A34N, A50T, T92N, D93S, E105D
